Data from US20220112288A1 (published 2022).

Columns and labels:
[1] = target: T1, human CD4 on cells (SKW3 cells; human PBMCs) (human, UniProt P01730 26-458); test: FACS binning on SKW3 cells pre-incubated with supernatant; competitor OKT4a read with anti-human A647 secondary; background 5000, max binding 35000
T1 construct: whole, on cells; SKW3 CD4 knockout cells served as the negative cell line; also called hCD4

[2] = target: T1, human CD4 on cells (SKW3 cells; human …); test: FACS confirmation, supernatant on SKW3 WT cells, anti-mouse Fc 647; background gMFI 3300
[3] = target: T1, human CD4 on cells (SKW3 cells; human …); test: FACS confirmation, supernatant on human PBMCs, anti-mouse Fc 647, CD4+ percent of viable cells
[4] = target: T2, huCD4-HIS (human, UniProt P01730 26-390, limits assumed); test: ELISA binning, competitor Ibalizumab; 100 ng/mL huCD4-HIS, anti-HIS HRP detection; background 45, max binding 3000000
T2 construct: the ELISA binning is not described in the text of this stretch

[5] = target: T1, human CD4 on cells (SKW3 cells; human …); test: FACS binning on SKW3 cells pre-incubated with supernatant; competitor OKT4-A488, its signal read; background 2163, max binding 8200
[6] = target: T1, human CD4 on cells (SKW3 cells; human …); test: FACS primary screen, non-clonal hybridoma supernatant, SKW3 vs SKW3 CD4 knockout cells, anti-mouse Fc A647
[7] = target: T1, human CD4 on cells (SKW3 cells; human …); test: FACS confirmation, supernatant on human PBMCs, anti-mouse Fc 647, CD4+ gate
[8] = target: T1, human CD4 on cells (SKW3 cells; human …); test: FACS primary screen, non-clonal hybridoma supernatant, SKW3 vs SKW3 CD4 knockout cells, anti-human kappa FITC
[9] = target: T1, human CD4 on cells (SKW3 cells; human …); test: FACS confirmation, supernatant on SKW3 WT cells, anti-human kappa FITC; background gMFI 2500
[10] = target: T1, human CD4 on cells (SKW3 cells; human …); test: FACS binning on SKW3 cells pre-incubated with supernatant; competitor RPA-T4-PE-Dazzle 594, its signal read; background 783, max binding 15000
[11] = target: T3, human CD4 on cells (SKW3 cells; human PBMCs) (human, UniProt P01730 26-458); test: FACS confirmation, supernatant on SKW3 cells; background gMFI 3300
T3 construct: whole, on cells; SKW3 CD4 knockout cells served as the negative cell line in the primary screen; also called hCD4; huCD4

[12] = target: T3, human CD4 on cells (SKW3 cells; human …); test: FACS confirmation, supernatant on SKW3 cells; background gMFI 2500
[13] = target: T3, human CD4 on cells (SKW3 cells; human …); test: FACS primary screen, hybridoma supernatant, SKW3 vs SKW3 CD4 KO cells;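 also: flow cytometry on mixed SKW3 and dye-labeled SKW3 CD4 knockout cells after 30 min at 4 °C with supernatant, ratio of binding signal on parental versus knockout cells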
[14] = target: T3, human CD4 on cells (SKW3 cells; human …); test: FACS confirmation, supernatant on human PBMCs;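 also: flow cytometry with hybridoma supernatants incubated on human PBMCs for 30 min at 4 °C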
[15] = target: T4, human CD8 on human pan T cells (CD4-negative population) (human, UniProt P01732 22-235; P10966 22-210); test: flow cytometry, 20 nM antibody on human pan T cells, A647 anti-human IgG Fc; geomean ratio in CD4-negative population
T4 construct: whole, on cells; Endogenous CD8 on primary human pan T cells, read in the CD4-negative gate; also called CD8α/β
T4 sequence (P01732 22-235, chain 1 of 2): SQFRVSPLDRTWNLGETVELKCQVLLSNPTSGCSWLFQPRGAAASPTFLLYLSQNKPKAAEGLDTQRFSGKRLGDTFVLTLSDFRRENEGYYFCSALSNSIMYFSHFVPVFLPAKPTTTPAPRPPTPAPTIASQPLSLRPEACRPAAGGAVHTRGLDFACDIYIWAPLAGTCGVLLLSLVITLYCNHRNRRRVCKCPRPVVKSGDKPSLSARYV
T4 sequence (P10966 22-210, chain 2 of 2): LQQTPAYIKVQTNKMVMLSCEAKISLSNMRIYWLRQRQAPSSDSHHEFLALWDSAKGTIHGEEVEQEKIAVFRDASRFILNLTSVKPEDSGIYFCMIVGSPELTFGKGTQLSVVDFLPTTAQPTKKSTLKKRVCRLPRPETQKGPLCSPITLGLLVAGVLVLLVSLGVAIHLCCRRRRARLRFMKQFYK

| Binder | SKW3 FACS Binning OKT4a anti-hu A647 Secondary [1] | SKW3 WT anti-mFc 647, gMFI [2] [gMFI] | PBMCs, anti-mFc 647 CD4+ Percent Bound of Viable [3] [%] | Ibalizumab ELISA binning signal [4] | SKW3 FACS Binning OKT4 A488 [5] | SKW3 WT vs KO anti-mFc-647 [6] [fold] | PBMCs, anti-mFc 647 CD4+ gate - RL1 Binding [7] | SKW3 WT vs KO anti-hKappa-FITC [8] [fold] | SKW3 WT anti-hu Kappa FITC, gMFI [9] [gMFI] | SKW3 FACS Binning RPA-T4-PE-Dazzle 594 [10] | gMFI on SKW3 WT, anti-mFc 647 [11] [gMFI] | gMFI on SKW3 WT, anti-hu Kappa FITC [12] [gMFI] | SKW3 WT vs KO ratio, anti-hKappa-FITC [13] | SKW3 WT vs KO ratio, anti-mFc-647 [13] | PBMCs CD4+ gate RL1 binding, anti-mFc 647 [14] | PBMCs CD4+ percent bound of viable [14] [%] | Cell Binding to Human PanT Signal/Background (of CD4 negative population) [15] |
| --- | --- | --- | --- | --- | --- | --- | --- | --- | --- | --- | --- | --- | --- | --- | --- | --- | --- |
| 75110_06D16A (antibody, V domains shown, Tested as non-clonal AlivaMab Mouse Kappa hybridoma supernatant: human variable domains and human kappa, mouse Fc (detected with anti-mouse Fc)) VH: QVQLQQWGAGLLKPSETLSLTCAVYGGSFSGYYWSWIRQPPGKGLEWIGEINHSGSTNYNPSLKSRVTISVVTSKNQFSLKLSSVTAADTAVYYCARVLNWFDPWGQGTLVTVSS VL: DIQMTQSPSSVSASVGDRVTITCRASQDIADWLAWYQQKPGKAPKLLIYAASSFQSGVPSRFSGSGSGTDFTLTISSLQPEDFATYFCQQANSFPYTFGQGTKLEIK | 5800 | 41300 | 29 | 1.27e+06 | 9980 | 4 | 216000 | 2.5 | 8670 | 21300 | – | – | – | – | – | – | – |
| 75110_12C19A (antibody, IgG1, V domains shown, Tested as non-clonal AlivaMab Mouse Kappa hybridoma supernatant: human variable domains and human kappa, mouse Fc) VH: EVQLVESGGGLVQPGGSLRLSCAASGFTFSSYWMSWVRQAPGKGLEWVANIKEDGSDKYYVDSVKGRFTISRDNAKNSLYLQMNSLRAEDTAVHYCVREGGQWLALDYWGQGTLVTVSS VL: DIQMTQSPSSVSGSVGDRVTITCRASQGISSWLAWYQQKPGKAPKLLIYGASSLQSGVPSRFSGSGSGTDFTLTISSLQPEDFVTYYCQQANSFPWTFGQGTKVEIK | 7140 | 29300 | 31 | 1.51e+06 | 9580 | 7.2 | 341000 | 2.3 | 6850 | 11900 | – | – | – | – | – | – | – |
| 75110_12K21A (antibody, V domains shown, Tested as non-clonal AlivaMab Mouse Kappa hybridoma supernatant: human variable domains and human kappa, mouse Fc) VH: QVQLQQWGAGLLKPSETLSLTCAVSGGSFSGYYWSWIRQPPGKGLEWIGEINHSGSTNCNPSLKSRVTISVDTSNNQFSLKLSSVTAADTAVYYCARVLNYFDYWGQGTLVTVSS VL: DIQMTQSPSSVSASVGDRVTITCRASPDIANWLAWYQQKPGKAPELLIYAASSLQSGVPSRFSGSGSGTDFTLTISSLQPEDFATYFCQQANSFPLTFGGGTKVESK | 8240 | 25000 | 30 | 1.41e+06 | 10000 | 6.6 | 335000 | 2.8 | 5620 | 10900 | – | – | – | – | – | – | – |
| 75110_07B16A (antibody, IgG1, V domains shown, Tested as non-clonal AlivaMab Mouse Kappa hybridoma supernatant: human variable domains and human kappa, mouse Fc) VH: QVQLQQWGAGLLKPSETLSLTCAVYGGSFSGYYWSWIRQSPGKGLEWIGEINQSGSTNYNPSLKSRVTISVDTSKDQFSLKLSSVTAADTAVYYCARVINWFDSWGQGSLVTVSS VL: DIQMTQSPSSVSASVGDRVTITCRASQGISSWLAWYQQKPGKAPKLLIYDASSFQSGVPSRFSGSGSGTDFTLTISSLQTDDFATYYCQQANSFPYTFGQGTKLEIK | 5320 | 30800 | 29 | 1.31e+06 | 9280 | 11.4 | 274000 | 3 | 7220 | 20600 | – | – | – | – | – | – | – |
| 75110_13C13A (antibody, IgG1, V domains shown, Tested as non-clonal AlivaMab Mouse Kappa hybridoma supernatant: human variable domains and human kappa, mouse Fc) VH: QVQLQQWGAGLLKPSETLSLTCAVSGGSFSGYYWSWIRQPPGKGLEWIGEINHSGSTNCNPSLKSRVTISVDTSKNQFSLKLSSVTAADTAMYYCARVLNFFDYWGQGTLVTVSS VL: DIQMTQTPSSVSASVGDRVTITCRASPGISNWLAWYQQKPGKAPELLIYAASSLQSGVPSRFSGSGSGTDFTLTISSLQPEDFATYFCQQANSFPLTFGGGTKVESK | 5500 | 23900 | 6 | 1.17e+06 | 9760 | 6.8 | 99600 | 3.1 | 7240 | 20800 | – | – | – | – | – | – | – |
| 75110_06E14A (antibody, V domains shown, Tested as non-clonal AlivaMab Mouse Kappa hybridoma supernatant (detected with anti-mouse Fc gamma and anti-human kappa)) VH: QVQLQESGPGLVKPSETLSLTCTVSGGSISNYFWSWIRQPAGKGLEWIGRIYSSGNTNYNPSLKSRVTMSVDTSKNQFSLKLSSVTAADTAVYYCARDREDYYYYGMDVWGQGTTVTVSS VL: DIQMTQSPSSLSASVGDRVTITCQASQDISNYLNWYQQKPGKAPKLLIYGASILETGVPSRFTGSGSGTDFTFTISSLQPEDIATYYCQQYDSLPITFGQGTRLEIK | – | – | – | – | – | – | – | – | – | – | 33800 | 8920 | 3 | 9.8 | 285000 | 30 | – |
| 75110_14I16A (antibody, V domains shown, Tested as non-clonal AlivaMab Mouse Kappa hybridoma supernatant (detected with anti-mouse Fc gamma and anti-human kappa); also called 75110_14116A) VH: QVQLQESGPGLVKPSETLSLTCTVSNGSISSYYWSWIRQSAGKGLEWIGRIYTSGSTNYNPSLKSRVTMLVDTSKNQFSLKLSSVTAADTAVYYCARDREDYYYYGMDVWGQGTTVTVSS VL: DIQMTQSPSSLSASVGDRVTITCQASHDISNYLNWYQQKPGKAPKLLLYYASNLETGVPSRFSGSGSGTDFTFTITSLQPEDIGTYSCQQYDNLPLTFGGGTKVEIK | – | – | – | – | – | – | – | – | – | – | 6820 | 3550 | 1.4 | 2.1 | 196000 | 23 | – |
| 75110_08M20A (antibody, V domains shown, Tested as non-clonal AlivaMab Mouse Kappa hybridoma supernatant (detected with anti-mouse Fc gamma and anti-human kappa)) VH: QVQLQESDPGLVKPSETLSLTCTVSGGSISSYYWSWIRQPAGKGLEWIGRIYASGSTNYNPSLKSRVTMSVDTSKNQFSLKLSSVTAADTAVYYCARDREGYYYYGMDVWGQGTTVTVSS VL: DIQMTQSPSSLSASVGDRVTITCQASQDISKYLNWYQQKPGKAPNLLIYAASNLETGVPSRFSGSGSGTDFTFTISSLQPEDIAAYYCQQYDSLPITFGQGTRLEIK | – | – | – | – | – | – | – | – | – | – | 30700 | 7790 | 2.7 | 8.8 | 319000 | 30 | – |
| CD8B319 (antibody, human IgG1, kappa, V domains shown, Full-length human IgG1, kappa; V regions recovered from mouse hybridoma) VH: QVQLKESGPELKKPGETVKISCKASGYSFTAYYMHWVKQSPEKSLEWIGEINPSAGGTTYNQKFKAKATLTVDKSSSTAFIQLKSLTSEDSAVYYCARWTNPFDYWGQGTTLTVSS VL: DIVMTQSQKFMSTTVGDRVSITCKASQNVGTAVAWYQQKPGQSPKLLIYSASYRYTGVPDRFTGSGSGTHFTLTISNIQSEDLADYFCQQYNNYLTFGSGTKLEIKR | – | – | – | – | – | – | – | – | – | – | – | – | – | – | – | – | 16 |
